Molecular target: KIR2DL1 expressed on YTS-2DL1 NK cells (human, UniProt P43626 22-348)
Experiment: cell-based or functional assay

Sequence of KIR2DL1 expressed on YTS-2DL1 NK cells (P43626 other isoform, or with tags, fused parts or gaps limits assumed): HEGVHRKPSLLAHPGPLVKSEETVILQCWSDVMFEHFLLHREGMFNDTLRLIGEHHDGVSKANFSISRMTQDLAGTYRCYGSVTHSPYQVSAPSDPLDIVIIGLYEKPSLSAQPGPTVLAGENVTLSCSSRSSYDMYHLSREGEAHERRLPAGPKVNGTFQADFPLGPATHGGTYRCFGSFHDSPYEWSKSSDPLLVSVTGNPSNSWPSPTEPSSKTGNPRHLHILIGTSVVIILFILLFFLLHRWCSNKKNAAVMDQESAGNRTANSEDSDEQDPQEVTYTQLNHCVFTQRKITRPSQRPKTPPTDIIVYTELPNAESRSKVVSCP

Row | Binder | killing of LCL 721.221-Cw4 cells by YTS-2DL1, fold over killing in the absence of mAb's
1 | murine IgG1 monoclonal antibody 1-26F117-A3 (antibody, V domains shown) VH: EVQLQQSGPELVKPGASVKISCKASDYSFTGYFMNWVMQSQEKSLEWIGRINPFNGDAFYNQKFKGKATLTVDKSSNTAHMELRSLTSEDSAVYYCARLDYRGYFFDYWGQGTTLTVSS VL: DIVMTQSQKFMSTTVGDRVSITCKASQSVGSAVGWYQQKPGQSPKLLIYSASTRYTGVPDRFTGSGSGTDFTLTITNMQSDDLADYFCHQYSRYPLSFGSGTKLEMKR | 3.7 fold
2 | murine IgG1 monoclonal antibody 1-26F117-A4 (antibody, V domains shown) VH: QVQLKESGPGLVAPSQSLSITCTVSGFSLTDYGVSWVRQPPGKGLEWLGLIWGDGRTNYHSALISRLSISKDNSKSQVFLKLNSLQIDDTATYYCARRGAMDYWGQGTSVTVSS VL: DIVMTQSQKFMSTTVGDRVSITCKASQSVGSAVGWYQQKPGQSPKLLIYSASTRYTGVPDRFTGSGSGTDFTLTITNMQSDDLADYFCHQYSRYPLSFGSGTKLEMKR | ~2 fold
